Measurements taken from patent publication US20030232009A1 (Amgen, published 2003).
Where two headings read alike, the source gives them in different places.

T1: Macaque 46 mer peptide (RB exon of macaque CD45RB) (macaque)
T1 construct: synthetic peptide
T1 peptide: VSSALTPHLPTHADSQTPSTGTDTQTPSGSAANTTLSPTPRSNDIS

T2: Human 46 mer peptide (RB exon of human CD45) (human)
T2 construct: synthetic peptide; also called CD45RB 46 mer
T2 peptide: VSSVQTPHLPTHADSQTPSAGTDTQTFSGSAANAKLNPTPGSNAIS

T3: Human 20.1 peptide (human)
T3 construct: synthetic peptide from the RB exon
T3 peptide: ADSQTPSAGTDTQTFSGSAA

T4: Human 20.2 peptide (human)
T4 construct: synthetic peptide from the RB exon
T4 peptide: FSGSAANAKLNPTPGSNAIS

T5: chimeric CD45RB (full length human CD45RB with the macaque RB exon) transiently expressed in CHO cells (human; macaque, UniProt P08575-9 26-33; P08575-9 81-1192)
T5 construct: whole chimeric protein on CHO cells; also called Macaque CD45RB CHO
T5 sequence: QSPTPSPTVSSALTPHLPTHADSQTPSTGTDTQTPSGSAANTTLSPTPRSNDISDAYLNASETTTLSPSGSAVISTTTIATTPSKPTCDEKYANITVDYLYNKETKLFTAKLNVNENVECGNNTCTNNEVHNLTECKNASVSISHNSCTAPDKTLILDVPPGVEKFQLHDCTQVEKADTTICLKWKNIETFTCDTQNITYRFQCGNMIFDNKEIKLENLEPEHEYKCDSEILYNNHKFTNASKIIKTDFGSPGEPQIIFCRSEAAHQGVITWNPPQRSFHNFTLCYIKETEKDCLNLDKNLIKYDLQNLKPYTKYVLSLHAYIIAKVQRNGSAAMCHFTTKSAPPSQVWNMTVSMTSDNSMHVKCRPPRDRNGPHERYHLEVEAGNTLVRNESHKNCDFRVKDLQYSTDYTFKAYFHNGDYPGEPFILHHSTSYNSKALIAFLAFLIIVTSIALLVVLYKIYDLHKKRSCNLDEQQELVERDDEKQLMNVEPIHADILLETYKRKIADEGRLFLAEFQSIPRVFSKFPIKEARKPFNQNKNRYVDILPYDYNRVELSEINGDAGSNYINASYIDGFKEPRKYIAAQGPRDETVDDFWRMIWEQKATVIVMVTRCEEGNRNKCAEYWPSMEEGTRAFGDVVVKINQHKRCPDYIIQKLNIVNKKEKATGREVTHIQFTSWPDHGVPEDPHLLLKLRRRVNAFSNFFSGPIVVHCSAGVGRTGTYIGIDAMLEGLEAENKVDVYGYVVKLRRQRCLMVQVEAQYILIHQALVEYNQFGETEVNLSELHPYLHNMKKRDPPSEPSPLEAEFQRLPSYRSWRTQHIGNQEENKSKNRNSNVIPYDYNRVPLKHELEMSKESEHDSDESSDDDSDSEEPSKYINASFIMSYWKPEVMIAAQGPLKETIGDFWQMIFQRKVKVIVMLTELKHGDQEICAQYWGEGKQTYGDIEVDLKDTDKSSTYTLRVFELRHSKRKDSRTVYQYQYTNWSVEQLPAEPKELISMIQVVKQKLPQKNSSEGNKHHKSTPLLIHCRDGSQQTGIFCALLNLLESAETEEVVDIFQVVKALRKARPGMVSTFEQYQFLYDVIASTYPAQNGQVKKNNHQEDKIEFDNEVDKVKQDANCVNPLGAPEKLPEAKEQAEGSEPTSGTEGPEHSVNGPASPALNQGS


Legend:
[1] = target: T1, Macaque 46 mer peptide (RB exon of …); assay: ELISA, well supernatant on coated peptide
[2] = target: T2, Human 46 mer peptide (RB exon of human …); assay: ELISA, well supernatant on coated peptide
Human 20.1 peptide [3] = target: T3, Human 20.1 peptide; assay: ELISA, well supernatant on coated peptide
Human 20.2 peptide = target: T4, Human 20.2 peptide; assay: recombinant antibody on peptide
[4] = target: T1, Macaque 46 mer peptide (RB exon of …); assay: recombinant antibody on peptide
[5] = target: T2, Human 46 mer peptide (RB exon of human …); assay: recombinant antibody on peptide
[6] = target: T5, chimeric CD45RB (full length human …); assay: transiently transfected CHO cells
[7] = target: T1, Macaque 46 mer peptide (RB exon of …); assay: ELISA, well supernatant on coated peptide
[8] = target: T2, Human 46 mer peptide (RB exon of human …); assay: ELISA, well supernatant on coated peptide
Human 20.1 peptide [9] = target: T3, Human 20.1 peptide; assay: ELISA, well supernatant on coated peptide

Binder	ELISA reading [1]	ELISA reading [2]	ELISA reading (Human 20.1 peptide [3])	other results
antibody in the supernatant of B cell culture well 227E10 (antibody, V domains shown) VH: QVHLVESGGGLVKPGGSLRLSCAASGFTFINYYMTWIRQAPGKGLEWVSYISLSGSTIYYADSVKGRFTISRDNAKNSLFLQMNSLRAEDTAVYYCARRAATVTTFDYWGQGTLVTVSS VL: EIVMTQSPATLSVSPGERATLSCRASQSVRSNLAWSQQKPGQAPRLLIYGASTRATGIPARFSGSGSGTEFTLTISSLQSEDFAVYYCQQYNNWPLTFGGGTKVEIK	0.2	0.2	0.1	
antibody in the supernatant of B cell culture well 250F2 (antibody, V domains shown, recombinant 662 came from this well) VH: QVQLVESGGDLVKPGGSLRLSCAASGFSFSGYYLSWIRQAPGKGLEWVSYISLSGSFIKYADSVKGRFTISRDNAKKTLHLQMNSLRAEDTAVYYCARRTGTTTVFDYWGQGTLVTVSS VL: EVVMTQSPATLSVSPGERATLSCRASQSVNSNLAWYQQRPGQAPRLLIYGASTRVTGIPARFSGSGSGTEFTLTISSLQSEDFAVYYCQQYNNWPLTFGGGTKVEIK	0.2	0.2	0.1	
AB-CD45RB-XG2-539 (antibody, human IgG2, V domains shown, recombinant human IgG2 kappa; also called sc539) VH: QVQLQESGPGLVKPSETLSLTCTVSGGSISGSYWSWIRQPAGKGLEWIGRIHSTGKTAYNPSLKSRVIMSLDTSKNLFSLKLTSVTAADTAVYYCARDYDFLTGYFDYWGQGTLVTVSS VL: DVVMTQSPLSLPVTLGQPASISCRSSQSLVYGDGNTYLNWFQQRPGHSPRRLIYKVSNWDSGVPDRFSGSGSGTDFTLKISRVEAEDVGIYYCMQGTHWPPTFGQGTRVEIK				binding result (Human 20.2 peptide): no binding; binding result [4]: no binding; binding result [5]: no binding; binding result [6]: no binding
antibody in the supernatant of B cell culture well 170B8 (antibody, V domains shown, recombinant 475 came from this well) VH: AVQLLESGGGLIQPGGSLRLSCAASGFTFSSYAMSWVRQAPGKGLEWVSAISGSGGSTFYADSVRGRFTISRDNSKNTLYLQMNSLRVEDTAVYYCAKEVMGPIFFDYWGQGTLVTVSS VL: EIVLTQSPGTLSLSPGERATLSCRASQSIISSALAWYQQKPGQAPRLLIYGASSRATGIPDRFSGSGSGTDFTLTISRLEPEDFAVYHCQQYGSTPLTFGGGTKVEIK				ELISA reading [7]: 0.8; ELISA reading [8]: 2.5; ELISA reading (Human 20.1 peptide [9]): 3.9

The next lines start with results.

ELISA reading [1]	ELISA reading [2]	ELISA reading (Human 20.1 peptide [3])	Binder	other results
0.2	0.2	0.1	antibody in the supernatant of B cell culture well 283B2 (antibody, V domains shown, recombinant 648 came from this well) VH: QVQLVESGGGLVKPGGSLRLSCAASGFTFNVYYMNWIRQAPGKGLEWVSYISTSSSAIYYADSVKGRFTISRDNAKNSLYLQMNSLRAEDTAVYYCARRTGSTTVFDYWGQGTLVTVSS VL: EIVLTQSPATLSVSPGERATLSCRASQSINNNLAWYQQKPGQAPRLLIYGASTRATGIPAKFSGSGSGTEFTLTISSLQSENFAVYYCQQYNKWPLTFGGGTKVEIK	
0.1	3.5	0.1	antibody in the supernatant of B cell culture well 255D9 (antibody, V domains shown, recombinant 713 came from this well) VH: QVQLVESGGGVVQPGRSLRLSCAASGFTFSNYGMHWVRQAPGKGLEWVAVIWYDGSKKFYADSVKGRFTISRDNFEKTLYLQMNSLRAEDTAVYYCARGGGDFDYWGQGTLVTVSS VL: EIVMTQSPATLSVSPGERATLSCRASQSLSGSYLAWYQQKPGQAPRLLIYSASTRATGIPARFSGSGSGTEFTLTISSLQSEDFAVYYCQQYNNWPPLTFGGGTKVEIK	
